{
  "source": "patent US20240228559A1",
  "about": "“REDOX SENSITIVE CRALBP MUTANT PROTEINS” (UNIVERSITÄT BERN, priority 2021, published 2024)",
  "key": {"CRALBP": {"biological_target": "T1, CRALBP (Bos taurus, UniProt P10123)", "T1 construct": "CRALBP was isolated from bovine retina; from tissue; host or cells: bovine retina", "conditions": "CRALBP isolated from bovine retina; cited from earlier work"}, "[1]": {"experiment": "Photoisomerization assay of cis-retinal complexes under daylight bulb, UV/Vis", "format": "physicochemical", "conditions": "for k, reaction velocity of photoisomerization: oxidized overnight at 4° C. with 5 mM oxidized glutathione, reduced with DTT", "description": "Photoisomerization assays of cis-retinal and its complexes with wild-type CRALBP or with di-cysteine mutant A212C:T250C of CRALBP were performed essentially as described by Saari et al. (Saari J C and Bredberg D L, ([…]), J Biol Chem. 262(16):7618-22). For this, the gel permeation chromatography purified ligand complexes were diluted to 26 μM in (GFC) buffer (10 mM Hepes, 100 mM NaCl, pH 7.5) and equimolar amounts of BSA were added to avoid protein precipitation through the light induced formation of free all-trans-retinal. […] Simultaneously UV/Vis absorption spectra were collected every 180 seconds for 3600 sec in total using the Evolution array UV/Vis spectrophotometer (Thermo Scientific). For photoisomerization experiments of the oxidized mutant A212C: T250C or the wild-type CRALBP, 5 mM oxidized glutathione was added to the preformed complexes and the mixtures were kept overnight at 4° C. For repeated reduction, the oxidized glutathion was first removed from the samples using a Vivaspin 15R Hydrosart (Sartorius) by three times concentrating the samples to a tenth of the volume and subsequent redilution in buffer (10 mM Hepes, 100 mM NaCl, pH 7.5) to the original volume. The washed samples were then reduced by adding 5 mM DTT and kept at 4° C. for 1 hour. […] Thus, the introduction of the A212C:T250C double mutation represents an engineered redox-sensitive on-off switch into human CRALBP allowing for a reversible turning on and off of CRALBP's mobile gate functionality. The two mutations are located at adjacent positions in the mobile gate's interface of CRALBP allowing for the formation of an intramolecular disulfide bond under oxidizing conditions and to regain the gate's native functionality under reducing conditions."}, "[2]": {"experiment": "Dynamic light scattering of GFC complex fractions", "format": "physicochemical", "conditions": "DLS, 25° C., H2O; ± SD", "description": "The same fractions derived from the preparative GFC that were characterized by analytical GFC, were also analyzed by dynamic light scattering (DLS) on a Malvern Zetasizer S®. Each DLS experiment contains was performed following the settings compiled in Table 5, the run duration and number of runs per measurement was set according to the auto-optimization of the Malvern Zetasizer software."}, "[3]": {"conditions": "both in complex with 11-cis-retinal; estimated from first order rate constants and extinction coefficients; cited from earlier work"}},
  "data": [
    {"compound": "CC1=C(/C=C/C(C)=C/C=C\\C(C)=C\\CO)C(C)(C)CCC1", "note": "[11-cis-retinol]", "values": [
      {"measurement": "Kd", "setting": "CRALBP", "result": 60, "unit": "nM"}
    ]},
    {"compound": "CC1=C(/C=C/C(C)=C/C=C/C(C)=C/C=O)C(C)(C)CCC1", "note": "[11-cis-retinal]", "values": [
      {"measurement": "Kd", "setting": "CRALBP", "result": 20, "unit": "nM"}
    ]},
    {"compound": "A212C:T250C: human CRALBP mutein with alanine 212 and threonine 250 replaced by cysteines, SEQ ID NO:9", "values": [
      {"measurement": "increase of photostability (half-life t1/2), oxidized versus reduced redox state", "setting": "[1]; FIG. 8, complex with cis-retinal, 1000 lux", "result": 20, "unit": "fold"},
      {"measurement": "slowing down of the rate of photoisomerization", "setting": "[1]; oxidized state, FIG. 9, 380 lux, room temperature", "result": "at least 10 fold"},
      {"measurement": "behaviour in photoisomerization assay after repeat reduction", "setting": "[1]; repeat reduction of the oxidized sample in 5 mM DTT", "result": "re-established wild-type like behavior"}
    ]},
    {"compound": "dimeric complex: dimeric GFC fraction of A212C:T250C CRALBP loaded with 9-cis-retinal", "values": [
      {"measurement": "average size distribution in diameter", "setting": "[2]", "result": "8.72±2.41", "unit": "nm"}
    ]},
    {"compound": "ox. A212C:T250C: 11-cis-retinal: oxidized A212C:T250C mutant in complex with 11-cis-retinal", "values": [
      {"measurement": "k, reaction velocity of photoisomerization", "setting": "[1]; FIG. 9", "result": "6.44e-06", "unit": "s⁻¹"}
    ]},
    {"compound": "wild-type: wild-type CRALBP in complex with cis-retinal, photoisomerization assay [reference compound]", "values": [
      {"measurement": "k, reaction velocity of photoisomerization", "setting": "[1]; FIG. 9", "result": "6.324e-05", "unit": "s⁻¹"}
    ]},
    {"compound": "monomeric complex of di-cysteine A212C:T250C CRALBP with 9-cis-retinal: monomeric GFC fraction of A212C:T250C CRALBP loaded with 9-cis-retinal", "values": [
      {"measurement": "average size distribution in diameter", "setting": "[2]", "result": "6.50±1.50", "unit": "nm"}
    ]},
    {"compound": "oxidized A212C:T250C:9-cis-retinal: oxidized A212C:T250C mutant in complex with 9-cis-retinal", "values": [
      {"measurement": "photoisomerization detectable", "setting": "[1]; FIG. 9, oxidized with 5 mM oxidized glutathione", "result": "No photoisomerization was detectable"}
    ]},
    {"compound": "CC1=C(/C=C/C(C)=C/C=C/C(C)=C/C=O)C(C)(C)CCC1", "note": "[13-cis]", "values": [
      {"measurement": "binding to CRALBP", "setting": "CRALBP", "result": "does not bind"}
    ]},
    {"compound": "CRALBP: CRALBP isolated from bovine retina, in complex with 11-cis-retinal", "values": [
      {"measurement": "expected photoisomerization in CRALBP compared to rhodopsin", "setting": "[3]", "result": 4, "unit": "%"}
    ]},
    {"compound": "SHMW: super high molecular weight oligomeric complex fraction of A212C:T250C CRALBP with 9-cis-retinal", "values": [
      {"measurement": "average size distribution in diameter", "setting": "[2]", "result": "28.28±2.13", "unit": "nm"}
    ]},
    {"compound": "HMW: high molecular weight oligomeric complex fraction of A212C:T250C CRALBP with 9-cis-retinal", "values": [
      {"measurement": "average size distribution in diameter", "setting": "[2]", "result": "13.50±0.47", "unit": "nm"}
    ]},
    {"compound": "CC1=C(/C=C/C(C)=C\\C=C\\C(C)=C\\C=O)C(C)(C)CCC1", "note": "[9-cis-retinal]", "values": [
      {"measurement": "Kd", "setting": "CRALBP", "result": 53, "unit": "nM"}
    ]},
    {"compound": "red. A212C:T250C: 11-cis-retinal: reduced A212C:T250C mutant in complex with 11-cis-retinal", "values": [
      {"measurement": "k, reaction velocity of photoisomerization", "setting": "[1]; FIG. 9", "result": "5.988e-05", "unit": "s⁻¹"}
    ]}
  ]
}
